Consider nine sequences from the Immune Epitope Database (IEDB).

Assay [1] has as its target HLA-A*69:01. In words: IEDB peptide-MHC binding, purified MHC/direct/fluorescence; filed as Kd, often an IC50 or EC50 that approximates it; ≥ and ≤ were set here for values at or beyond the usual limits of such assays. The note with it: source organism: Ebola virus - Gabon (1994-1997).
The target of the next assay is HLA-B*07:02. The description is as above. The following applies: source organism: Ebola virus - Gabon (1994-1997).
In assay [2] the target is HLA-B*15:01. Described as above. The following applies: source organism: Ebola virus - Gabon (1994-1997).
In a further assay the target is HLA-B*40:01. The assay is described as above. The note with it: source organism: Ebola virus - Gabon (1994-1997).
Assay [3] addresses HLA-B*46:01. The assay is described as above. The following applies: source organism: Ebola virus - Gabon (1994-1997).
For assay [4], the target named is HLA-B*57:01. The description is as above. The following applies: source organism: Ebola virus - Gabon (1994-1997).
Another assay has as its target HLA-B*27:05. The assay is described as above. The following applies: source organism: Ebola virus - Gabon (1994-1997).
For assay [5], the target named is HLA-B*58:01. The assay is described as above. The note with it: source organism: Ebola virus - Gabon (1994-1997).
A further assay deals with HLA-A*24:03. The description is as above.
The target in assay [6] is HLA-A*02:01. The description is as above. The following applies: source organism: Ebola virus - Gabon (1994-1997).
A further assay deals with HLA-A*11:01. The assay is described as above. The following applies: source organism: Ebola virus - Gabon (1994-1997).
For a further assay, the target named is HLA-A*02:12. Described as above.
The next assay deals with HLA-A*23:01. Described as above.
In another assay the target is HLA-B*44:02. Described as above. The note with it: source organism: Ebola virus - Gabon (1994-1997).
Assay [7] has as its target HLA-A*01:01. The assay is described as above. The following applies: source organism: Ebola virus - Gabon (1994-1997).
Another assay deals with HLA-A*03:01. The description is as above.
The target in assay [8] is HLA-B*18:01. Described as above. The following applies: source organism: Ebola virus - Gabon (1994-1997).
The target of assay [9] is HLA-A*68:02. The assay is described as above.
The next assay concerns the target HLA-A*29:02. The description is as above.
For assay [10], the target named is HLA-B*39:01. The description is as above. The following applies: source organism: Ebola virus - Gabon (1994-1997).
In the next assay the target is HLA-B*15:17. In words: IEDB peptide-MHC binding, purified MHC/competitive/fluorescence; filed as Kd, often an IC50 or EC50 that approximates it; ≥ and ≤ were set here for values at or beyond the usual limits of such assays.
For another assay, the target named is HLA-B*27:03. Described as above.
A further assay has as its target HLA-B*51:01. Described as above.
For another assay, the target named is HLA-A*26:01. Described as above.
Assay [11] concerns the target HLA-B*57:01. Kind of assay: IEDB peptide-MHC binding, purified MHC/competitive/radioactivity; filed as Kd, often an IC50 or EC50 that approximates it; ≥ and ≤ were set here for values at or beyond the usual limits of such assays.
In assay [12] the target is HLA-B*58:01. The description is as above.
Assay [13] addresses HLA-A*68:02. The description is as above. The following applies: source organism: Dengue virus 4 Philippines/H241/1956.
For the next assay, the target named is HLA-A*32:01. Described as above.
For the next assay, the target named is HLA-B*53:01. Described as above. The note with it: source organism: Dengue virus 4 Philippines/H241/1956.
The next assay addresses HLA-A*02:16. In words: IEDB peptide-MHC binding, purified MHC/direct/fluorescence; filed as Kd, often an IC50 or EC50 that approximates it; ≥ and ≤ were set here for values at or beyond the usual limits of such assays. The note with it: source organism: Reston ebolavirus.
The target in a further assay is HLA-A*02:03. Described as above. The following applies: source organism: Reston ebolavirus.
The next assay addresses HLA-A*02:19. The description is as above. The following applies: source organism: Reston ebolavirus.
In another assay the target is HLA-A*02:11. The assay is described as above. The following applies: source organism: Reston ebolavirus.
Assay [14] concerns the target HLA-A*69:01. Kind of assay: IEDB peptide-MHC binding, purified MHC/competitive/fluorescence; filed as Kd, often an IC50 or EC50 that approximates it; ≥ and ≤ were set here for values at or beyond the usual limits of such assays. The note with it: source organism: Reston ebolavirus.
Assay [15] addresses HLA-B*15:01. The assay is described as above. The following applies: source organism: Reston ebolavirus.
The next assay deals with HLA-A*31:01. The description is as above. The note with it: source organism: Reston ebolavirus.
The target of assay [16] is HLA-B*46:01. The description is as above. The following applies: source organism: Reston ebolavirus.
In assay [17] the target is HLA-B*57:01. The assay is described as above. The note with it: source organism: Reston ebolavirus.
Assay [18] concerns the target HLA-A*02:01. Described as above. The note with it: source organism: Reston ebolavirus.
In assay [19] the target is HLA-B*18:01. Described as above. The note with it: source organism: Reston ebolavirus.
For assay [20], the target named is HLA-B*39:01. The assay is described as above. The following applies: source organism: Reston ebolavirus.
For assay [21], the target named is HLA-A*01:01. In words: IEDB peptide-MHC binding, purified MHC/competitive/radioactivity; filed as Kd, often an IC50 or EC50 that approximates it; ≥ and ≤ were set here for values at or beyond the usual limits of such assays. The note with it: source organism: Dengue virus 2 Jamaica/1409/1983.
[22] abbreviates: source organism: Zaire ebolavirus.
Setting [23] is: source organism: Ebola virus - Gabon (1994-1997).
Setting [24] is: source organism: Dengue virus 4 Philippines/H241/1956.
[25] abbreviates: source organism: Dengue virus 3 Martinique/1243/1999.
Where [26] appears, read: source organism: Reston ebolavirus.
Where [27] appears, read: source organism: Dengue virus 2 Jamaica/1409/1983.

The term Kd denotes the constant that tells how readily two partners part at equilibrium. As for AKATGRYNL, the Kd with HLA-A*69:01 [1], in the assay with HLA-B*07:02, with HLA-B*15:01 [2], with HLA-B*40:01, in the assay with HLA-B*46:01 [3] and in the assay with HLA-B*57:01 [4] was at least 20 µM each time. For the same sequence, the Kd with HLA-B*27:05, with HLA-B*58:01 [5], in the assay with HLA-A*24:03 (setting [22]), with HLA-A*02:01 [6], in the assay with HLA-A*11:01 and in the assay with HLA-A*02:12 (setting [22]) was at least 20 µM each time. Besides, the Kd with HLA-A*23:01 (setting [22]), with HLA-B*44:02, in the assay with HLA-A*01:01 [7], with HLA-A*03:01 (setting [23]), in the assay with HLA-B*18:01 [8] and with HLA-A*68:02 [9] (setting [22]) was at least 20 µM in each case. In addition, the Kd with HLA-A*29:02 (setting [23]) was at least 20 µM; in the assay with HLA-B*39:01 [10], 0.78 µM; with HLA-B*15:17 (setting [22]), at least 20 µM; with HLA-B*27:03 (setting [22]), at least 20 µM; with HLA-B*51:01 (setting [22]) it was at least 20 µM; in the assay with HLA-A*26:01 (setting [22]), at least 20 µM.
As for IGLSSRATW, the Kd amounted to 0.0481 µM with HLA-B*57:01 [11] (setting [24]) and 0.00663 µM in the assay with HLA-B*58:01 [12] (setting [24]).
For LASMAICSAV, the Kd is at least 21.9 µM in the assay with HLA-B*57:01 [11] (setting [24]), 0.586 µM with HLA-B*58:01 [12] (setting [24]) and 0.0262 µM in the assay with HLA-A*68:02 [13].
As for MVMTTTANW, the Kd amounted to 0.0263 µM in the assay with HLA-A*32:01 (setting [24]), 0.011 µM in the assay with HLA-B*57:01 [11] (setting [24]), 0.0162 µM with HLA-B*58:01 [12] (setting [24]) and 0.00345 µM with HLA-B*53:01.
As for NSSFIIDGPN, the equilibrium dissociation constant (Kd) with HLA-B*57:01 [11] (setting [25]) is 0.142 µM; in the assay with HLA-B*58:01 [12] (setting [25]), 0.00543 µM.
For RTYSLLNRK, the Kd with HLA-A*24:03 (setting [26]), with HLA-A*02:12 (setting [26]), in the assay with HLA-A*02:16, in the assay with HLA-A*23:01 (setting [26]), in the assay with HLA-A*02:03 and with HLA-A*02:19 was at least 20 µM each time. Also, the Kd in the assay with HLA-A*03:01 (source organism: Reston ebolavirus - Reston) is 0.144 µM; in the assay with HLA-A*68:02 [9] (setting [26]), at least 20 µM; with HLA-A*29:02 (setting [26]) it was at least 20 µM; with HLA-A*02:11, at least 20 µM; with HLA-A*69:01 [14], at least 20 µM; in the assay with HLA-B*15:01 [15], at least 20 µM. Moreover, the Kd in the assay with HLA-A*31:01 was 0.0155 µM; with HLA-B*46:01 [16], at least 20 µM; with HLA-B*57:01 [17], at least 20 µM; with HLA-A*02:01 [18], at least 20 µM; with HLA-B*15:17 (setting [26]) it was at least 20 µM; with HLA-B*27:03 (setting [26]) it was at least 20 µM. Further, the Kd with HLA-B*51:01 (setting [26]), with HLA-B*18:01 [19], in the assay with HLA-A*26:01 (setting [26]) and in the assay with HLA-B*39:01 [20] was at least 20 µM throughout.
With RVWIQENPW, the Kd came to 0.0224 µM with HLA-A*32:01 (setting [27]), 0.00787 µM in the assay with HLA-B*57:01 [11] (setting [27]) and 0.0034 µM with HLA-B*58:01 [12] (setting [27]).
With STSLSVSLVL, the values for the Kd with HLA-B*57:01 [11] (setting [27]) and with HLA-A*01:01 [21] were 0.667 µM and 12 µM, respectively.
With TASGKLITEW, the Kd in the assay with HLA-B*57:01 [11] (setting [27]) came to 0.0497 µM; in the assay with HLA-B*58:01 [12] (setting [27]) it was 0.163 µM.
